The results in this text go back to publication PMC8079451, “Phosphopeptide interactions of the Nbs1 N-terminal FHA-BRCT1/2 domains” (Scientific Reports, 2021).

Square brackets hold non-standard residues; d marks the D form. Primed or numbered codes have the meaning given here. Ends that are not written are not given here. FITC′ = fluorescein isothiocyanate label; pT = C[C@@H](OP(=O)(O)O)[C@H](N)C(=O)O

What all share (assay): fluorescence polarisation; 100 nM FITC-labeled phosphopeptide with increasing hsNbs1(384); room temperature, 15 min incubation; 25 mM HEPES pH 7.4, 150 mM NaCl, 1 mM EDTA, 2 mM DTT, 0.05% Tween20, 0.1% BSA; one-site model
Holding throughout (conditions): both partners purified
(In fluorescence polarisation assays a small probe gives low polarisation when free and higher when bound to something large.)

The target in experiment [1] is T1, hsNbs1(384), the N-terminal 384 residues of homo sapiens Nbs1 containing the FHA-BRCT1-BRCT2 domains (human, UniProt O60934 1-384).
T1 construct: gene optimised for E. coli, cloned into pET30a (NdeI/HindIII); also called wt; source: E. coli BL21(DE3) pLacI, purified (Ni-NTA, HiTrap Q, Superdex 75)
T1 sequence (looked up): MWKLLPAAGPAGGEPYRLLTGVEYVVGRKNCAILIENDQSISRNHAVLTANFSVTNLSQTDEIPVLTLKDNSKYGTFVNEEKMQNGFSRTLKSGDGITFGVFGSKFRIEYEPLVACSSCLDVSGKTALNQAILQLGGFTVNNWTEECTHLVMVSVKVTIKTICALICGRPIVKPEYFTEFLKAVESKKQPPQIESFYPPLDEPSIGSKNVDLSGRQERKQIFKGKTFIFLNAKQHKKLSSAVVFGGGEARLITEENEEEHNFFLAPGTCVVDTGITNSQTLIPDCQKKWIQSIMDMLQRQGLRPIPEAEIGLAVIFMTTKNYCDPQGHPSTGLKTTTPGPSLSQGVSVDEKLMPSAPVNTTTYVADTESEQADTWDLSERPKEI

A further experiment deals with T2, hsNbs1(384) K29A (human, UniProt O60934 1-384, K29A).
T2 construct: source: E. coli BL21(DE3) pLacI, purified as the wild type
T2 sequence (looked up): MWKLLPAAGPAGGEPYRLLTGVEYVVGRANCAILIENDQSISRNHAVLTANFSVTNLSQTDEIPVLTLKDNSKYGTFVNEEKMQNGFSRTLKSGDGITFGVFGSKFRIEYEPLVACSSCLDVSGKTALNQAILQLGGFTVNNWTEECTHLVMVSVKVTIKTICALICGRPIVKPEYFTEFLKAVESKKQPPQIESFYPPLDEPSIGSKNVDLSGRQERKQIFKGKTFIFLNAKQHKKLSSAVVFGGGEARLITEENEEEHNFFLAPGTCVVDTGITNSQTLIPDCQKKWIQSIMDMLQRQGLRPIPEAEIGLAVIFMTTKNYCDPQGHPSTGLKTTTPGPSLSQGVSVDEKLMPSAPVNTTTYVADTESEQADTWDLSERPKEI

For the next experiment, the target named is T3, hsNbs1(384) K73A (human, UniProt O60934 1-384, K73A).
T3 construct: source: E. coli BL21(DE3) pLacI, purified as the wild type
T3 sequence (looked up): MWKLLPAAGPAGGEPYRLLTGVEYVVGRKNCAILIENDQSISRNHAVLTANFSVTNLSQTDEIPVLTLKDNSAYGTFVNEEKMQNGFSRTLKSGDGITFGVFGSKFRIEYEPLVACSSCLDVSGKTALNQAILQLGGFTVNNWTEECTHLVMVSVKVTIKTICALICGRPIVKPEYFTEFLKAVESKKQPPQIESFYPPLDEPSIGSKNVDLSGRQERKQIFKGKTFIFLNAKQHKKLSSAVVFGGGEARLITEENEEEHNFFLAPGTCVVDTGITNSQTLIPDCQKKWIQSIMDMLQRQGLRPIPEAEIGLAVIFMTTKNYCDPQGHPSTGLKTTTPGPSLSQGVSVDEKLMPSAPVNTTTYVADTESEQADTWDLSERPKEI

Another experiment deals with T4, hsNbs1(384) K160A (human, UniProt O60934 1-384, K160A).
T4 construct: source: E. coli BL21(DE3) pLacI, purified as the wild type
T4 sequence (looked up): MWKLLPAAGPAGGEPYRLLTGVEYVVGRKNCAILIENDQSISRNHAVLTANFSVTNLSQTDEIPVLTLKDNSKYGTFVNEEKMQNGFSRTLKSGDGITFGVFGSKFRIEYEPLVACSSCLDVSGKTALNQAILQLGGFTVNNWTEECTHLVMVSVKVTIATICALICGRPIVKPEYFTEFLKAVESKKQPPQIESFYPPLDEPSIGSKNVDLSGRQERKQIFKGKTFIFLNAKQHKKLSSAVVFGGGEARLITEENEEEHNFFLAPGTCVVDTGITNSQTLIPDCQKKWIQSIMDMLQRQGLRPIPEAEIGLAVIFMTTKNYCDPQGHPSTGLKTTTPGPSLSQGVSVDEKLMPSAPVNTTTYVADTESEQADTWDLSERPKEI

A further experiment concerns the target T5, hsNbs1(384) S118G (human, UniProt O60934 1-384, S118G).
T5 construct: source: E. coli BL21(DE3) pLacI, purified as the wild type
T5 sequence (looked up): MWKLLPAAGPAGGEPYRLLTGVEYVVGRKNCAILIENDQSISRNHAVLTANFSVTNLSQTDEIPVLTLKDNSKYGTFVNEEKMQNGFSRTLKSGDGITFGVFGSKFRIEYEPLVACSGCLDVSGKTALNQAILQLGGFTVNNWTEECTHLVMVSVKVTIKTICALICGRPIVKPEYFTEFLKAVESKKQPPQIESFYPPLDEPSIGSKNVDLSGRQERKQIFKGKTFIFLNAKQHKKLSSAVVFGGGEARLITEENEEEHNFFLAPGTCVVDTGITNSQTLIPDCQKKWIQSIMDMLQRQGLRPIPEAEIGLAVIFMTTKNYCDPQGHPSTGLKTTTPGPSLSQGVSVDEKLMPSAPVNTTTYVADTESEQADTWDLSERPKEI

Turning to {FITC′}-GGRYIPPN[pT]PENFWEVGFPEEQ [hsCtIP phosphopeptide R841YIPPNpTPENFWEVGFPEEQ860 with N-terminal FITC-Gly-Gly], the Kd (usually a measure of binding affinity in units of concentration) came out at 20 µM in experiment [1]; 26 µM in the experiment with hsNbs1(384) K29A; 32.9 µM with hsNbs1(384) K73A; 133 µM with hsNbs1(384) K160A; 149 µM with hsNbs1(384) S118G.
